We go through 27 molecules from publication PMC10786891, “Massively parallel profiling of RNA-targeting CRISPR-Cas13d”.

First the molecules themselves.
T1: EsCas13d, nuclease-dead (Eubacterium siraeum, UniProt B0MS50, R295A;H300A;R849A;H854A)
T1 sequence: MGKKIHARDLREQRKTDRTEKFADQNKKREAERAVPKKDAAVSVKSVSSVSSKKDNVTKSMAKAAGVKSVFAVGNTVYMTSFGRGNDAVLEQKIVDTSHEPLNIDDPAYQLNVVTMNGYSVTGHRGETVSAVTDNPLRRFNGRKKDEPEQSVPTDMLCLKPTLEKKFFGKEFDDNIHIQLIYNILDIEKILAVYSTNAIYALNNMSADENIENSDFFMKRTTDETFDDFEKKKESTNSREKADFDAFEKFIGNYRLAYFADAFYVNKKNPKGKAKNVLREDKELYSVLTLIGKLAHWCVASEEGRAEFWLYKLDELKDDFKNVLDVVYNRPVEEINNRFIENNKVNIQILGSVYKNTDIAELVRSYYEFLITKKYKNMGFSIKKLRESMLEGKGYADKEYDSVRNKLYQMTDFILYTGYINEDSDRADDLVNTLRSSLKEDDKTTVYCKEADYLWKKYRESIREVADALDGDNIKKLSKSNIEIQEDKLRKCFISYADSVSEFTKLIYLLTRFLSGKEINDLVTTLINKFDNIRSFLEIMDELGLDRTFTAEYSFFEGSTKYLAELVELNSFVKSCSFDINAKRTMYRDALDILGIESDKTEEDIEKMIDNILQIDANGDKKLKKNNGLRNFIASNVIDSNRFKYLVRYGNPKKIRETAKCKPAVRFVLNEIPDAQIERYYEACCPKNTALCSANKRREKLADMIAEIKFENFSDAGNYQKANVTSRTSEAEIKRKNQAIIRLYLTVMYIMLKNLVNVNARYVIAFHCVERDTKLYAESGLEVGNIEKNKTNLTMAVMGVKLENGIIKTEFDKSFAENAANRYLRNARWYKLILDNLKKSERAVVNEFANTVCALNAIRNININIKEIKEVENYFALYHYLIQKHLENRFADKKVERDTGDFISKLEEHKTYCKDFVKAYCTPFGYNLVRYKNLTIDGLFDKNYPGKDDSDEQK

B1: target 1 insG 3' of 16,insU 3' of 13 (mixed)
RNA 1: CACCCGUGCAAAAAUGCAGGGGUCUAAAACUGAGCGGAUAACCUCUCUAUGG
RNA 2: GGGAAUGGAUCCACAUCUACGAAUUCGUACCAUAGAGGAGUGUUAUCCGCUCACCGAGAUCGGAAGAGCACACGU
B2: target 1 U3G,A18C (mixed)
RNA 1: CACCCGUGCAAAAAUGCAGGGGUCUAAAACUGAGCGGAUAACCUCUCUAUGG
RNA 2: GGGAAUGGAUCCACAUCUACGAAUUCGUACCAUCGAGAGGUUAUCCGCGCACCGAGAUCGGAAGAGCACACGU
B3: target 1 insC 3' of 13,insA 3' of 6 (mixed)
RNA 1: CACCCGUGCAAAAAUGCAGGGGUCUAAAACUGAGCGGAUAACCUCUCUAUGG
RNA 2: GGGAAUGGAUCCACAUCUACGAAUUCGUACCAUAGAGAGCGUUAUCCAGCUCACCGAGAUCGGAAGAGCACACGU
B4: target 1 C4A,C21A (mixed)
RNA 1: CACCCGUGCAAAAAUGCAGGGGUCUAAAACUGAGCGGAUAACCUCUCUAUGG
RNA 2: GGGAAUGGAUCCACAUCUACGAAUUCGUACAAUAGAGAGGUUAUCCGAUCACCGAGAUCGGAAGAGCACACGU
B5: target 2 MT 5'PFS CUA 3'PFS CAC (mixed)
RNA 1: CACCCGUGCAAAAUUGCAGGGGUCUAAAACCUUCUCCAAAUUGUUUCAUCCU
RNA 2: GGGAAUGGAUCCACAUCUACGAAUUCCUAAGGAUGAAACAAUUUGGAGAAGCACAGAUCGGAAGAGCACACGU
B6: target 2 MT 5'PFS CGG 3'PFS UGA (mixed)
RNA 1: CACCCGUGCAAAAUUGCAGGGGUCUAAAACCUUCUCCAAAUUGUUUCAUCCU
RNA 2: GGGAAUGGAUCCACAUCUACGAAUUCCGGAGGAUGAAACAAUUUGGAGAAGUGAAGAUCGGAAGAGCACACGU
B7: target 2 MT 5'PFS CGG 3'PFS UGU (mixed)
RNA 1: CACCCGUGCAAAAUUGCAGGGGUCUAAAACCUUCUCCAAAUUGUUUCAUCCU
RNA 2: GGGAAUGGAUCCACAUCUACGAAUUCCGGAGGAUGAAACAAUUUGGAGAAGUGUAGAUCGGAAGAGCACACGU
B8: target 2 MT 5'PFS ACA 3'PFS UCC (mixed)
RNA 1: CACCCGUGCAAAAUUGCAGGGGUCUAAAACCUUCUCCAAAUUGUUUCAUCCU
RNA 2: GGGAAUGGAUCCACAUCUACGAAUUCACAAGGAUGAAACAAUUUGGAGAAGUCCAGAUCGGAAGAGCACACGU
B9: target 2 MT 5'PFS ACC 3'PFS AUA (mixed)
RNA 1: CACCCGUGCAAAAUUGCAGGGGUCUAAAACCUUCUCCAAAUUGUUUCAUCCU
RNA 2: GGGAAUGGAUCCACAUCUACGAAUUCACCAGGAUGAAACAAUUUGGAGAAGAUAAGAUCGGAAGAGCACACGU
B10: target 2 MT 5'PFS UAC 3'PFS AGG (mixed)
RNA 1: CACCCGUGCAAAAUUGCAGGGGUCUAAAACCUUCUCCAAAUUGUUUCAUCCU
RNA 2: GGGAAUGGAUCCACAUCUACGAAUUCUACAGGAUGAAACAAUUUGGAGAAGAGGAGAUCGGAAGAGCACACGU
B11: target 2 MT 5'PFS ACC 3'PFS AUU (mixed)
RNA 1: CACCCGUGCAAAAUUGCAGGGGUCUAAAACCUUCUCCAAAUUGUUUCAUCCU
RNA 2: GGGAAUGGAUCCACAUCUACGAAUUCACCAGGAUGAAACAAUUUGGAGAAGAUUAGAUCGGAAGAGCACACGU
B12: target 2 MT 5'PFS ACC 3'PFS AUG (mixed)
RNA 1: CACCCGUGCAAAAUUGCAGGGGUCUAAAACCUUCUCCAAAUUGUUUCAUCCU
RNA 2: GGGAAUGGAUCCACAUCUACGAAUUCACCAGGAUGAAACAAUUUGGAGAAGAUGAGAUCGGAAGAGCACACGU
B13: target 2 MT 5'PFS GAC 3'PFS CGA (mixed)
RNA 1: CACCCGUGCAAAAUUGCAGGGGUCUAAAACCUUCUCCAAAUUGUUUCAUCCU
RNA 2: GGGAAUGGAUCCACAUCUACGAAUUCGACAGGAUGAAACAAUUUGGAGAAGCGAAGAUCGGAAGAGCACACGU
B14: target 2 MT 5'PFS AGU 3'PFS CCA (mixed)
RNA 1: CACCCGUGCAAAAUUGCAGGGGUCUAAAACCUUCUCCAAAUUGUUUCAUCCU
RNA 2: GGGAAUGGAUCCACAUCUACGAAUUCAGUAGGAUGAAACAAUUUGGAGAAGCCAAGAUCGGAAGAGCACACGU
B15: target 2 MT 5'PFS ACA 3'PFS UCU (mixed)
RNA 1: CACCCGUGCAAAAUUGCAGGGGUCUAAAACCUUCUCCAAAUUGUUUCAUCCU
RNA 2: GGGAAUGGAUCCACAUCUACGAAUUCACAAGGAUGAAACAAUUUGGAGAAGUCUAGAUCGGAAGAGCACACGU
B16: target 2 MT 5'PFS CGC 3'PFS CCA (mixed)
RNA 1: CACCCGUGCAAAAUUGCAGGGGUCUAAAACCUUCUCCAAAUUGUUUCAUCCU
RNA 2: GGGAAUGGAUCCACAUCUACGAAUUCCGCAGGAUGAAACAAUUUGGAGAAGCCAAGAUCGGAAGAGCACACGU
B17: target 2 MT 5'PFS UAA 3'PFS CGC (mixed)
RNA 1: CACCCGUGCAAAAUUGCAGGGGUCUAAAACCUUCUCCAAAUUGUUUCAUCCU
RNA 2: GGGAAUGGAUCCACAUCUACGAAUUCUAAAGGAUGAAACAAUUUGGAGAAGCGCAGAUCGGAAGAGCACACGU
B18: target 2 MT 5'PFS UGC 3'PFS CCG (mixed)
RNA 1: CACCCGUGCAAAAUUGCAGGGGUCUAAAACCUUCUCCAAAUUGUUUCAUCCU
RNA 2: GGGAAUGGAUCCACAUCUACGAAUUCUGCAGGAUGAAACAAUUUGGAGAAGCCGAGAUCGGAAGAGCACACGU
B19: target 2 MT 5'PFS UGC 3'PFS CCA (mixed)
RNA 1: CACCCGUGCAAAAUUGCAGGGGUCUAAAACCUUCUCCAAAUUGUUUCAUCCU
RNA 2: GGGAAUGGAUCCACAUCUACGAAUUCUGCAGGAUGAAACAAUUUGGAGAAGCCAAGAUCGGAAGAGCACACGU
B20: target 2 MT 5'PFS AGU 3'PFS CCG (mixed)
RNA 1: CACCCGUGCAAAAUUGCAGGGGUCUAAAACCUUCUCCAAAUUGUUUCAUCCU
RNA 2: GGGAAUGGAUCCACAUCUACGAAUUCAGUAGGAUGAAACAAUUUGGAGAAGCCGAGAUCGGAAGAGCACACGU
B21: target 2 MT 5'PFS UAC 3'PFS AGC (mixed)
RNA 1: CACCCGUGCAAAAUUGCAGGGGUCUAAAACCUUCUCCAAAUUGUUUCAUCCU
RNA 2: GGGAAUGGAUCCACAUCUACGAAUUCUACAGGAUGAAACAAUUUGGAGAAGAGCAGAUCGGAAGAGCACACGU
B22: target 2 MT 5'PFS UAC 3'PFS UAC (mixed)
RNA 1: CACCCGUGCAAAAUUGCAGGGGUCUAAAACCUUCUCCAAAUUGUUUCAUCCU
RNA 2: GGGAAUGGAUCCACAUCUACGAAUUCUACAGGAUGAAACAAUUUGGAGAAGUACAGAUCGGAAGAGCACACGU
B23: target 2 MT 5'PFS CGC 3'PFS CCG (mixed)
RNA 1: CACCCGUGCAAAAUUGCAGGGGUCUAAAACCUUCUCCAAAUUGUUUCAUCCU
RNA 2: GGGAAUGGAUCCACAUCUACGAAUUCCGCAGGAUGAAACAAUUUGGAGAAGCCGAGAUCGGAAGAGCACACGU
B24: target 2 MT 5'PFS ACC 3'PFS AUC (mixed)
RNA 1: CACCCGUGCAAAAUUGCAGGGGUCUAAAACCUUCUCCAAAUUGUUUCAUCCU
RNA 2: GGGAAUGGAUCCACAUCUACGAAUUCACCAGGAUGAAACAAUUUGGAGAAGAUCAGAUCGGAAGAGCACACGU
B25: target 2 MT 5'PFS CGG 3'PFS UGC (mixed)
RNA 1: CACCCGUGCAAAAUUGCAGGGGUCUAAAACCUUCUCCAAAUUGUUUCAUCCU
RNA 2: GGGAAUGGAUCCACAUCUACGAAUUCCGGAGGAUGAAACAAUUUGGAGAAGUGCAGAUCGGAAGAGCACACGU
B26: target 2 MT 5'PFS UAC 3'PFS AGA (mixed)
RNA 1: CACCCGUGCAAAAUUGCAGGGGUCUAAAACCUUCUCCAAAUUGUUUCAUCCU
RNA 2: GGGAAUGGAUCCACAUCUACGAAUUCUACAGGAUGAAACAAUUUGGAGAAGAGAAGAUCGGAAGAGCACACGU
B27: target 2 MT 5'PFS UAC 3'PFS UAG (mixed)
RNA 1: CACCCGUGCAAAAUUGCAGGGGUCUAAAACCUUCUCCAAAUUGUUUCAUCCU
RNA 2: GGGAAUGGAUCCACAUCUACGAAUUCUACAGGAUGAAACAAUUUGGAGAAGUAGAGAUCGGAAGAGCACACGU

By Kd is commonly meant the constant that tells how readily two partners part at equilibrium. Higher therefore signals a looser complex.

The series has as its target T1, EsCas13d, nuclease-dead. The series is described as follows: crRNA (strand 1, pre-loaded); Mg2+; 40 mM Tris-HCl pH 7.5, 150 mM NaCl, 6 mM MgCl2, 1 mM DTT, 0.1% Tween-20, 0.2 mg/ml BSA; 25 C; 10 min per concentration, then washed. The following applies: tags: His6-TwinStrep-SUMO cleaved; N-terminal SNAP kept (SNAP-Surface 488); label: 3' end held by stalled T7 RNA polymerase.
Regarding B1, the Kd came to 23.2 ± 3.2 nM.

B2 had a dissociation constant Kd of 52 ± 4 nM.

Molecule B3 showed an equilibrium dissociation constant (Kd) of 11.7 ± 0.9 nM.

As to B4, the Kd is 41 ± 9 nM.

On to B5, for which the dissociation constant Kd came to 3.01 ± 0.32 nM.

Take B6: the Kd is 6.9 ± 1.3 nM.

B7 registered a Kd of 9.3 ± 1.6 nM.

B8 registered a Kd of 10 ± 2.5 nM.

In turn, B9 returned a Kd of 6.7 ± 3.2 nM.

B10 gave a dissociation constant (Kd) of 4.7 ± 0.7 nM.

In turn, B11 displayed an equilibrium dissociation constant (Kd) of about 12 nM.

Take B12: the Kd was 5.8 ± 1.5 nM.

On to B13, for which the Kd worked out at 13.6 ± 1.5 nM.

With B14, the dissociation constant Kd was 36 ± 11 nM.

B15 gave a Kd of 8.6 ± 2.3 nM.

Molecule B16 gave a dissociation constant (Kd) of 22 ± 4 nM.

B17 displayed a Kd of 4.3 ± 0.5 nM.

B18 registered a Kd of 61 ± 15 nM.

For B19, binding was put at a Kd of 16 ± 5 nM.

Consider B20, for which the Kd turned out to be 10.2 ± 0.9 nM.

In the case of B21, the Kd is 4.2 ± 0.5 nM.

Molecule B22 registered a Kd of 6.2 ± 0.8 nM.

Take B23: the Kd stood at 8.1 ± 1.3 nM.

The molecule B24 had a dissociation constant Kd of 5.5 ± 0.7 nM.

Consider B25, for which binding was characterised by a dissociation constant (Kd) of 4.3 ± 0.5 nM.

Turning to B26, the affinity, expressed as Kd, was 6.7 ± 0.9 nM.

For B27, binding was characterised by a dissociation constant (Kd) of 6.7 ± 0.6 nM.
